According to the supplement of paper PMC9732359:
± gives the uncertainty stated by the source.

Assay: protein stability index of a GFP-peptide fusion (yeast GPS) (PSI 1-4); higher = more stable; sorted into four equal gates, so the index is relative within each strain
In short: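 Each library plasmid carries Cherry plus GFP with a tiled 17-residue yeast protein peptide fused downstream, and the pooled library was carried in yeast. Mid-log cultures in leucine-free medium were sorted into four equal gates by GFP/Cherry ratio. Reads from Illumina sequencing of PCR-amplified plasmids from each gate were assigned to strains by barcodes. Per peptide, the protein stability index was computed as the summed products of gate read frequency and gate number.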

Row | Sequence | protein stability index (doa10∆) | protein stability index (pdr5∆) | protein stability index (san1∆) | protein stability index (ubr1∆)
1 | IFTDFLPSSNGSSRIIA [RRP42] | 3.15 ± 0.085 | 2.89 ± 0.084 | 3.07 ± 0.073 | 2.8 ± 0.069
2 | NLGYCNDKLIVDNDNWV [RPN1] | 2.37 ± 0.1 | 2.79 ± 0.18 | 2.32 ± 0.2 | –
3 | MGKGKPRGLNSARKLRV [RPS23A] | 2.4 ± 0.089 | 3.05 ± 0.08 | 2.96 ± 0.094 | 2.79 ± 0.072
4 | KQTDTGITHFRAGMTHE [PRP8] | 2.36 ± 0.055 | 2.61 ± 0.047 | 3.08 ± 0.057 | 2.94 ± 0.037
5 | NVDNQTSDLVKSLGLKL [RPS17A] | 3.2 ± 0.087 | 3.29 ± 0.084 | 3.35 ± 0.066 | 3.06 ± 0.075
6 | ASGFGFGGSQPNSGTAT [YGR119C/NUP57] | 3.19 ± 0.14 | 2.74 ± 0.086 | 2.4 ± 0.11 | 2.87 ± 0.094
7 | TEEKCKNFIESESVGAF [YJL039C/NUP192] | 3.43 ± 0.15 | 3.23 ± 0.088 | 3.33 ± 0.062 | 3.47 ± 0.056
8 | VLVDEIKSQYYSRISKL [YIL149C/MLP2] | 2.41 ± 0.054 | 2.46 ± 0.045 | 2.3 ± 0.058 | 2.29 ± 0.034
9 | VAEKMNGCSGADVKGVC [RPT6] | 3.41 ± 0.24 | – | 3.19 ± 0.23 | 3.07 ± 0.11
10 | RNQRKGAGSIFTSHTRL [RPL2A] | 2.03 ± 0.054 | 3.12 ± 0.067 | 2.73 ± 0.05 | 3.09 ± 0.059
11 | LNIKPLLDAGCKVVAEM [SKP1] | 2.44 ± 0.083 | 2.51 ± 0.081 | 1.85 ± 0.1 | 2.47 ± 0.054
12 | QAPTTGFSFGSQLGGNK [YJL041W/NSP1] | 3.02 ± 0.051 | 3.01 ± 0.054 | 3.37 ± 0.045 | 3.17 ± 0.036
13 | VLKYMLLSKIMLNLIDD [RPN6] | 2.04 ± 0.06 | 1.49 ± 0.05 | 1.2 ± 0.098 | 1.66 ± 0.045
14 | ETEKFALERNWPIVNSK [RPN12] | 3.19 ± 0.095 | 3.25 ± 0.12 | 3.13 ± 0.069 | 3.11 ± 0.086
15 | GFIENCNGSALVEARSL [MTR3] | 2.66 ± 0.1 | 2.83 ± 0.085 | 2.23 ± 0.12 | 2.15 ± 0.12
16 | RVLEIQTSLVRMFEKNV [SKI6] | 3.35 ± 0.094 | 3.07 ± 0.065 | 2.51 ± 0.078 | 3.12 ± 0.047
17 | QLPSKFTCSCNSLTVDG [RPN14] | 2.2 ± 0.06 | 2.39 ± 0.062 | 2.17 ± 0.052 | 2.17 ± 0.036
18 | KEKEKEREEAEKKRAEQ [MED2] | – | – | 2.75 ± 0.28 | –
19 | MVAATKRRKTHIHKHVK [RET1] | 2.96 ± 0.17 | 3.08 ± 0.15 | 2.31 ± 0.2 | 3.09 ± 0.1
20 | QFVDMVLPNTALKTSIQ [FAS1] | 2.5 ± 0.091 | 1.61 ± 0.05 | 1.58 ± 0.12 | 1.28 ± 0.039
21 | VLKKKNIQKKQPAKEKG [RRP6] | 3 ± 0.085 | 3.03 ± 0.067 | 3.09 ± 0.042 | 3.22 ± 0.044
22 | LVDKRIDMLPMLLGTDL [DIS3] | 2.17 ± 0.083 | 2.54 ± 0.1 | 2.27 ± 0.08 | 2.34 ± 0.059
23 | RREFKQYSLERNSPFWW [PRP8] | 3.06 ± 0.12 | 3.64 ± 0.12 | 3.1 ± 0.12 | 3.19 ± 0.14
24 | FEGNVATKAINGCIFTL [PRP8] | 2.57 ± 0.068 | 2.32 ± 0.049 | 1.97 ± 0.053 | 2.71 ± 0.05
25 | FDDIFQVSEVDPGRYNK [RPB8] | 3.06 ± 0.14 | 2.75 ± 0.12 | 2.57 ± 0.18 | 2.95 ± 0.097
26 | DTSKALLNVSVNITKFS [SKI6] | 2.27 ± 0.08 | 2.57 ± 0.068 | 2.72 ± 0.073 | 2.42 ± 0.072
27 | AELQSNLQVELLSEHDD [YGL100W/SEH1] | 2.61 ± 0.083 | 2.95 ± 0.065 | 2.62 ± 0.07 | 2.87 ± 0.061

Row | Sequence | protein stability index (doa10∆) | protein stability index (pdr5∆) | protein stability index (san1∆) | protein stability index (ubr1∆)
28 | FLLSAMTMASKSLEVVN [NSL1] | 1.4 ± 0.08 | 1.45 ± 0.069 | 1.54 ± 0.15 | 1.61 ± 0.047
29 | PPSSFGRSHTRNSTRSS [REC8] | 3.04 ± 0.14 | 2.65 ± 0.17 | 3.14 ± 0.087 | 2.96 ± 0.17
30 | NVLNQINQIFSPEEQRS [GAL11] | 2.83 ± 0.045 | 2.93 ± 0.035 | 2.91 ± 0.039 | 2.81 ± 0.038
31 | EDVLSSFYRVEKIKKIN [SSN2] | 1.7 ± 0.28 | 1.13 ± 0.074 | 1.24 ± 0.28 | 1.16 ± 0.089
32 | KYLIKYNVFRQHTSFQE [CSI1] | 1.24 ± 0.069 | 1.2 ± 0.046 | 1.13 ± 0.14 | 1.19 ± 0.058
33 | VTSMEAAREKKIRELEA [YIL149C/MLP2] | 2.97 ± 0.072 | 2.9 ± 0.1 | 2.92 ± 0.07 | 2.86 ± 0.063
34 | ASLQQQQQQDLQQQQQV [SNF6] | 2.66 ± 0.26 | 2.7 ± 0.17 | – | 2.69 ± 0.21
35 | SEDDSESGKVFIGRLPI [RPB2] | 3.36 ± 0.08 | 3.19 ± 0.073 | 3.31 ± 0.055 | 3.29 ± 0.043
36 | KDGRIRIFKITEKLSPL [YGL100W/SEH1] | 2.84 ± 0.079 | 2.85 ± 0.09 | 2.57 ± 0.08 | 2.79 ± 0.045
37 | AHNKPSLFSKIKTFFTQ [YAR002W/NUP60] | 2.37 ± 0.079 | 2.85 ± 0.076 | 2.66 ± 0.064 | 2.73 ± 0.065
38 | TFPVGRVHRLLRRGNYA [HTA1] | 2.38 ± 0.13 | 2.86 ± 0.14 | 2.5 ± 0.087 | 2.27 ± 0.12
39 | ENDNLDNVSKNALDKLR [YCG1] | 3.29 ± 0.099 | 3.15 ± 0.16 | 3.08 ± 0.08 | 3.26 ± 0.1
40 | VNTEKKTIEVTAEINCF [RPN3] | – | 1.35 ± 0.11 | 1.78 ± 0.21 | 1.62 ± 0.16
41 | LLKSTGLHPFEVAQLGS [RPB4] | 1.94 ± 0.12 | 1.81 ± 0.27 | – | 2.73 ± 0.2
42 | KSVKFVQGLLQNAAANA [RPL17A] | 2.56 ± 0.065 | 2.65 ± 0.068 | 2.28 ± 0.05 | 2.46 ± 0.034
43 | MSDSIISFAAFILADAG [RPP1B] | 1.62 ± 0.069 | 1.35 ± 0.049 | 1.31 ± 0.2 | 1.26 ± 0.057
44 | TQDDFTTSVDVMLKGIV [SRP54] | 1.63 ± 0.1 | 2.23 ± 0.081 | 1.67 ± 0.12 | 1.51 ± 0.047
45 | PVGSYEREQCRAGGAAA [PRE7] | 3.02 ± 0.24 | 2.98 ± 0.18 | 3.32 ± 0.17 | 2.78 ± 0.097
46 | AVAASSTKTGTPSDLSE [POP1] | 3.3 ± 0.084 | 3.26 ± 0.077 | 3.41 ± 0.045 | 3.33 ± 0.035
47 | LITTYSKLSKNISFYKL [SIN4] | 2.18 ± 0.16 | 2.47 ± 0.12 | 2.24 ± 0.11 | 2.69 ± 0.072
48 | NSLAVRGKDCTVVISQK [SCL1] | 2.64 ± 0.075 | 2.9 ± 0.062 | 2.94 ± 0.051 | 2.72 ± 0.045
49 | VVNITHHELVPKHIRLS [RPB5] | 2.52 ± 0.065 | 2.89 ± 0.062 | 3.01 ± 0.064 | 3.01 ± 0.056
50 | EECGRTIHRSFTICLND [CSN12] | 2.93 ± 0.064 | 2.87 ± 0.065 | 2.84 ± 0.055 | 2.86 ± 0.044
51 | SQEREFSLLVKAEIPPE [SIN4] | 3.04 ± 0.1 | 2.98 ± 0.072 | 2.96 ± 0.073 | 2.83 ± 0.061
52 | IQNDIYLNDLMITKRIL [RPN12] | 2.34 ± 0.18 | 2.76 ± 0.14 | 2.72 ± 0.25 | 2.65 ± 0.12
53 | NPDDDYGFKQEIFDVTS [FAS1] | 3.38 ± 0.25 | 3.45 ± 0.11 | 3.17 ± 0.1 | 3.31 ± 0.055
54 | EHIKQDYVASLNELYQT [NSL1] | 2.91 ± 0.062 | 3.1 ± 0.057 | 2.84 ± 0.047 | 2.88 ± 0.053
